From patent publication US20210253736A1 (published 2021)
Values belong to the binder of their own block, whether it stands above or below them.

Assays:
Cyno = target: T1, Cyno; assay: Octet
T1 chain: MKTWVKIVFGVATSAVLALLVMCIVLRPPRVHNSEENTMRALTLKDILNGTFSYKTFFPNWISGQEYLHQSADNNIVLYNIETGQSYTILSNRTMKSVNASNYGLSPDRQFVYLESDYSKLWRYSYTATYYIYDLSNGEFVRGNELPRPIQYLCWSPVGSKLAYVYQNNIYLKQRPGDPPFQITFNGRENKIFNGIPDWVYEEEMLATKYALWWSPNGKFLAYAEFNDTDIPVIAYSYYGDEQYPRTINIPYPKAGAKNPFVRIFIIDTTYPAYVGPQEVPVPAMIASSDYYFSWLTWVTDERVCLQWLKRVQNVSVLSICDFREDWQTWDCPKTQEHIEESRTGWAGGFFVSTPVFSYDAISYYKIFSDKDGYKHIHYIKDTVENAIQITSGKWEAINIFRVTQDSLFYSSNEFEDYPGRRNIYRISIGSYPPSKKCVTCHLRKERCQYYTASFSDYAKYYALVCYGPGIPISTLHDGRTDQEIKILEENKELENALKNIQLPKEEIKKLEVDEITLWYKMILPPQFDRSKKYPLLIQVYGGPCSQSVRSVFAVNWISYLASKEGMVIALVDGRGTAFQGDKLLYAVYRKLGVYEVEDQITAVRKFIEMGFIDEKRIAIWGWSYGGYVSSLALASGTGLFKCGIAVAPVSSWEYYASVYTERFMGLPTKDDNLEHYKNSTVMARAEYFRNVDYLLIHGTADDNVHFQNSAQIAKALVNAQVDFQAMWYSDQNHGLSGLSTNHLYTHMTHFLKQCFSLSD

His-tagged murine FAP = target: T2, His-tagged murine FAP (murine, UniProt P97321 26-761); assay: Octet
T2 chain: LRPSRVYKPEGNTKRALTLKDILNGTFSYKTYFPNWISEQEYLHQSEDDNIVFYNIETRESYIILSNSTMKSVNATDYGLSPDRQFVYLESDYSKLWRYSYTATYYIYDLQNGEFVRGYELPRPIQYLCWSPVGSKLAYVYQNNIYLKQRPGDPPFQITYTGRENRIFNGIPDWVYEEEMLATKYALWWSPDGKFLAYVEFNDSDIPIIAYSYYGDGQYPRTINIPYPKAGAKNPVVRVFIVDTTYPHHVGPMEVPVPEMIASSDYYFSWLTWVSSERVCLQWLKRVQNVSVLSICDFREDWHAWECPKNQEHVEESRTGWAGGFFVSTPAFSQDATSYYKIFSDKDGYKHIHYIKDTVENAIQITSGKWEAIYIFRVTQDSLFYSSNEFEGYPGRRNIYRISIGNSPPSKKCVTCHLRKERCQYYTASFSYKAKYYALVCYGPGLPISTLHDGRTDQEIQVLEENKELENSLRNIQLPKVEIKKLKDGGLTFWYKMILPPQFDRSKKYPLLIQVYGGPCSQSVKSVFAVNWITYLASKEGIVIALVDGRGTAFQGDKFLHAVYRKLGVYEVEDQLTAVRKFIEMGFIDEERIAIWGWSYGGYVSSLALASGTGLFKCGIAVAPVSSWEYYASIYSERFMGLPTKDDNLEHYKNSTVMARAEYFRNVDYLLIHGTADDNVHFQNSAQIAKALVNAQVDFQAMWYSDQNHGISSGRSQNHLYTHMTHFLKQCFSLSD

His-tagged human FAP [1] = target: T3, His-tagged human FAP (human, UniProt Q12884 26-760); assay: Octet
Cyno FAP = target: T4, Cyno FAP; assay: Octet; apparent KD
T4 chain: T1 chain

His-tagged human FAP [2] = target: T3, His-tagged human FAP; assay: Octet; apparent KD

Kd (Cyno): 0.53 nM
Kd (His-tagged murine FAP): 33 nM
Kd (His-tagged human FAP [1]): 0.372 nM
B1: XENP24462 (1F4B5) (antibody, V domains shown)
VH: EVQLLESGGGLVQPGGSLRLSCAASGFTFSRYAMTWVRQAPGKGLEWVSSISASGGSTYYADSVKGRFTISRDNSKNTLYLQMNSLRAEDTAVYYCAKTFSGYAHYDFDYWGQGTLVTVSS
VL: not shown

Kd (Cyno): < 0.001 nM
Kd (His-tagged human FAP [1]): < 0.001 nM
B2: XENP23534 (sibrotuzumab) (antibody, V domains shown)
VH: QVQLVQSGAEVKKPGASVKVSCKTSRYTFTEYTIHWVRQAPGQRLEWIGGINPNNGIPNYNQKFKGRVTITVDTSASTAYMELSSLRSEDTAVYYCARRRIAYGYDEGHAMDYWGQGTLVTVSS
VL: DIVMTQSPDSLAVSLGERATINCKSSQSLLYSRNQKNYLAWYQQKPGQPPKLLIFWASTRESGVPDRFSGSGFGTDFTLTISSLQAEDVAVYYCQQYFSYPLTFGQGTKVEIKR

Kd (Cyno): 0.458 nM
Kd (His-tagged human FAP [1]): 0.515 nM
B3: XENP24460 (1A1B5) (antibody, V domains shown)
VH: EVQLLESGGGLVQPGGSLRLSCAASGFTFSSYAMNWVRQAPGKGLEWVSTISSSGSRTYYADSVKGRFTISRDNSKNTLYLQMNSLRAEDTAVYYCAKGLVASAPFDYWGQGTLVTVSS
VL: not shown

Kd (Cyno): 1.11 nM
Kd (His-tagged human FAP [1]): 1.02 nM
B4: XENP24461 (1A7B5) (antibody, V domains shown)
VH: EVQLLESGGGLVQPGGSLRLSCAASGFTFSSYAMSWVRQAPGKGLEWVSGISGGGGSTYYADSVKGRFTISRDNSKNTLYLQMNSLRAEDTAVYYCAKIAHSRIGWHFDYWGQGTLVTVSS
VL: not shown

Kd (Cyno): 0.0224 nM
Kd (His-tagged murine FAP): 45.5 nM
Kd (His-tagged human FAP [1]): < 0.001 nM
B5: XENP24463 (1F11B5) (antibody, V domains shown)
VH: EVQLLESGGGLVQPGGSLRLSCAASGFTFSSYAMNWVRQAPGKGLEWVSGISGGGSSTTYYADSVKGRFTISRDNSKNTLYLQMNSLRAEDTAVYYCAKPYYWVDSFFDYWGQGTLVTVSS
VL: not shown

Kd (Cyno): 6.93 nM
Kd (His-tagged murine FAP): 4.52 nM
Kd (His-tagged human FAP [1]): 9.13 nM
B6: XENP24471 (1F10B5) (antibody, V domains shown)
VH: EVQLLESGGGLVQPGGSLRLSCAASGFTFSSYGMSWVRQAPGKGLEWVSGISGSGSSTHYADSVKGRFTISRDNSKNTLYLQMNSLRAEDTAVYYCAKGTTGLSYFDYWGQGTLVTVSS
VL: not shown

Kd (Cyno FAP): 0.0149 nM
Kd (His-tagged human FAP [2]): 0.0308 nM
B7: XENP24011 (sibrotuzumab, central-scFv) (antibody)
chain 1: QVQLVQSGAEVKKPGASVKVSCKTSRYTFTEYTIHWVRQAPGQRLEWIGGINPNNGIPNYNQKFKGRVTITVDTSASTAYMELSSLRSEDTAVYYCARRRIAYGYDEGHAMDYWGQGTLVTVSSASTKGPSVFPLAPSSKSTSGGTAALGCLVKDYFPEPVTVSWNSGALTSGVHTFPAVLQSSGLYSLSSVVTVPSSSLGTQTYICNVNHKPSDTKVDKKVEPKSCDKTHTCPPCPAPPVAGPSVFLFPPKPKDTLMISRTPEVTCVVVDVKHEDPEVKFNWYVDGVEVHNAKTKPREEEYNSTYRVVSVLTVLHQDWLNGKEYKCKVSNKALPAPIEKTISKAKGQPREPQVYTLPPSREEMTKNQVSLTCDVSGFYPSDIAVEWESDGQPENNYKTTPPVLDSDGSFFLYSKLTVDKSRWEQGDVFSCSVMHEALHNHYTQKSLSLSPGK
chain 2: QVQLVQSGAEVKKPGASVKVSCKTSRYTFTEYTIHWVRQAPGQRLEWIGGINPNNGIPNYNQKFKGRVTITVDTSASTAYMELSSLRSEDTAVYYCARRRIAYGYDEGHAMDYWGQGTLVTVSSASTKGPSVFPLAPSSKSTSGGTAALGCLVKDYFPEPVTVSWNSGALTSGVHTFPAVLQSSGLYSLSSVVTVPSSSLGTQTYICNVNHKPSNTKVDKKVEPKSCGGGGSGGGGSEVQLVESGGGLVQPGGSLRLSCAASGFTFSTYAMNWVRQAPGKGLEWVGRIRSKYNNYATYYADSVKGRFTISRDDSKNTLYLQMNSLRAEDTAVYYCVRHGNFGDSYVSWFAYWGQGTLVTVSSGKPGSGKPGSGKPGSGKPGSQAVVTQEPSLTVSPGGTVTLTCGSSTGAVTTSNYANWVQQKPGKSPRGLIGGTNKRAPGVPARFSGSLLGGKAALTISGAQPEDEADYYCALWYSNHWVFGGGTKLTVLGGGGSGGGGSKTHTCPPCPAPPVAGPSVFLFPPKPKDTLMISRTPEVTCVVVDVKHEDPEVKFNWYVDGVEVHNAKTKPREEQYNSTYRVVSVLTVLHQDWLNGKEYKCKVSNKALPAPIEKTISKAKGQPREPQVYTLPPSREQMTKNQVKLTCLVKGFYPSDIAVEWESNGQPENNYKTTPPVLDSDGSFFLYSKLTVDKSRWQQGNVFSCSVMHEALHNHYTQKSLSLSPGK
chain 3: not shown

Kd (Cyno): < 0.001 nM
Kd (His-tagged human FAP [1]): < 0.001 nM
B8: XENP24466 (1F12B5) (antibody, V domains shown)
VH: EVQLLESGGGLVQPGGSLRLSCAASGFTFSSYAMTWVRQAPGKGLEWVSTISSSGGTTYYADSVKGRFTISRDNSKNTLYLQMNSLRAEDTAVYYCAKYPSYYSVTGFDYWGQGTLVTVSS
VL: not shown

Kd (Cyno): 5.01 nM
Kd (His-tagged human FAP [1]): 4.54 nM
B9: XENP24448 (1C3A5) (antibody, V domains shown)
VH: EVQLLESGGGLVQPGGSLRLSCAASGFTFSSYAMSWVRQAPGKGLEWVSAISGSGGGTRYADSVKGRFTISRDNSKNTLYLQMNSLRAEDTAVYYCAKHSSGFHWYFDYWGQGTLVTVSS
VL: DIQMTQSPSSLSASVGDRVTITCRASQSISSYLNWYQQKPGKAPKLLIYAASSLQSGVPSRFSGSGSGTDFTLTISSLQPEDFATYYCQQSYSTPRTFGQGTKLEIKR

Kd (Cyno FAP): 0.187 nM
Kd (His-tagged human FAP [2]): 0.323 nM
B10: XENP23936 (3F2, central-scFv) (antibody)
chain 1: not shown
chain 2: not shown
chain 3: EIVLTQSPGTLSLSPGERATLSCRASQSVTSSYLAWYQQKPGQAPRLLINVGSRRATGIPDRFSGSGSGTDFTLTISRLEPEDFAVYYCQQGIMLPPTFGQGTKVEIKRTVAAPSVFIFPPSDEQLKSGTASVVCLLNNFYPREAKVQWKVDNALQSGNSQESVTEQDSKDSTYSLSSTLTLSKADYEKHKVYACEVTHQGLSSPVTKSFNRGEC

Kd (Cyno FAP): 0.0229 nM
Kd (His-tagged human FAP [2]): < 0.001 nM
B11: XENP23932 (29B11, central-scFv) (antibody)
chain 1: EVQLLESGGGLVQPGGSLRLSCAASGFTFSSYAMSWVRQAPGKGLEWVSAIIGSGGITYYADSVKGRFTISRDNSKNTLYLQMNSLRAEDTAVYYCAKGWFGGFNYWGQGTLVTVSSASTKGPSVFPLAPSSKSTSGGTAALGCLVKDYFPEPVTVSWNSGALTSGVHTFPAVLQSSGLYSLSSVVTVPSSSLGTQTYICNVNHKPSDTKVDKKVEPKSCDKTHTCPPCPAPPVAGPSVFLFPPKPKDTLMISRTPEVTCVVVDVKHEDPEVKFNWYVDGVEVHNAKTKPREEEYNSTYRVVSVLTVLHQDWLNGKEYKCKVSNKALPAPIEKTISKAKGQPREPQVYTLPPSREEMTKNQVSLTCDVSGFYPSDIAVEWESDGQPENNYKTTPPVLDSDGSFFLYSKLTVDKSRWEQGDVFSCSVMHEALHNHYTQKSLSLSPGK
chain 2: EVQLLESGGGLVQPGGSLRLSCAASGFTFSSYAMSWVRQAPGKGLEWVSAIIGSGGITYYADSVKGRFTISRDNSKNTLYLQMNSLRAEDTAVYYCAKGWFGGFNYWGQGTLVTVSSASTKGPSVFPLAPSSKSTSGGTAALGCLVKDYFPEPVTVSWNSGALTSGVHTFPAVLQSSGLYSLSSVVTVPSSSLGTQTYICNVNHKPSNTKVDKKVEPKSCGGGGSGGGGSEVQLVESGGGLVQPGGSLRLSCAASGFTFSTYAMNWVRQAPGKGLEWVGRIRSKYNNYATYYADSVKGRFTISRDDSKNTLYLQMNSLRAEDTAVYYCVRHGNFGDSYVSWFAYWGQGTLVTVSSGKPGSGKPGSGKPGSGKPGSQAVVTQEPSLTVSPGGTVTLTCGSSTGAVTTSNYANWVQQKPGKSPRGLIGGTNKRAPGVPARFSGSLLGGKAALTISGAQPEDEADYYCALWYSNHWVFGGGTKLTVLGGGGSGGGGSKTHTCPPCPAPPVAGPSVFLFPPKPKDTLMISRTPEVTCVVVDVKHEDPEVKFNWYVDGVEVHNAKTKPREEQYNSTYRVVSVLTVLHQDWLNGKEYKCKVSNKALPAPIEKTISKAKGQPREPQVYTLPPSREQMTKNQVKLTCLVKGFYPSDIAVEWESNGQPENNYKTTPPVLDSDGSFFLYSKLTVDKSRWQQGNVFSCSVMHEALHNHYTQKSLSLSPGK
chain 3: B10 chain 3
